Results taken from the nanobody polyreactivity screen of Harvey et al. (2022).

Experiment: yeast display, Sf9 membrane polyspecificity reagent, FACS + sequencing; frameworks hold sequencing errors
Summary of the method: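 Genes from sorted yeast were amplified by colony PCR, read by MiSeq 2 × 250 sequencing and filtered on CDR length. These cells carried a synthetic nanobody library in Saccharomyces cerevisiae BJ5465 and were sorted by FACS into low and high (top ~1%) gates on anti-HA and streptavidin fluorescence. Polyreactivity is labelled according to the gate of origin.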

| Sequence | polyreactivity (PSR sort gate) |
| --- | --- |
| QVQLVESGGGLVQEGGSLRLSCAASGLIFSEYAMGWSRQAPGKERELVAAIRSDGGSTYYADSVKGRFTISRDNAKNSVYLQMNSLKPEDTAVYYCNAPYRRSAKFRRYGYDYLGQGTQVTVSS | high polyreactivity |
| QVQLVESGGGLVQEGGSLRLSCAASGLTFTGNAMGGYRQAPGKEREFVAAIRWSAGSTYYADSVKGRFTISRDNAKNTVYLQMNSLKPEDTAVYYCYAALIVSGHNPNDYWGQGTQVTGSS | low polyreactivity |
| QVQLVESGGGLVQEGGSLRLSCAASGRIFKYNAMGWYRQAPGKERELVAAISSSGGSTYYADSVKGRFTISRDNAKNTVYLHMNSLKPEDTAVYYCAARYNSRVYRYDYWGQGTQVTVSS | high polyreactivity |
| QVQLVESGGGLVQEGGSLRLSCAASGRIFSYNTVMGWYIQAPGKERELVAAITFSSASTYYADSVKGRFTISRDNAKNTVYLQMNSLKPEDTAVYYCAAAIRSQSSKYYYWGQGTQVTVSS | low polyreactivity |
| QVQLVESGGGLVQEGGSLRLSCAASGRTFAVYAMGWYRQAPGKERELVAAITYGGGRTYYADSVKGRFTISRDNAKNTVYLQMNSLKPEDTAVYYCAADYYGTDYDYWGQGTQVTVSS | low polyreactivity |
| QVQLVESGGGLVQEGGSLRLSCAASGRTFTTYAMGWYRQAPGKERELVAAISDTGGITYYADSVKGRFTISRDTAKNTVYIQMNSLKPEDTAVYYCNAESYGGDYDYWGQGTQVTVSS | low polyreactivity |
| QVQLVESGGGLVQEGGSLRLSCAASGRTIIQNGMGWYRQAPGKERELVAAISYRGGTTSYADSVKGRFTISRDNAKNTVYLQMNSLKPEDTAVYSCAAVGHTIYATPTYYYWGQGTQVTVSS | high polyreactivity |
| QVQLVESGGGLVQEGGSLRLSCAASGRTIVSNAMGWYRQAPGKERELVAAIRYGGGRTYYADSVKGRFTISRDNAKNTVYLQMNSLKPEDTAVYYCAKRSVGGTGYYWGQGTQVTVSS | high polyreactivity |
| QVQLVESGGGLVQEGGSLRLSCAASGRTLYRNAMGWYRQAPGKERELVAAISRSGGRTSYADSVKGRFTISRDNANNTVYLQMNSLIPEDTAVYYCNDVASHEFDYWGEGTQVTVSS | high polyreactivity |
| QVQLVESGGGLVQEGGSLRLSCAASGSIFGGYALGWYRQAPGKERELVAAITWRGGRTYYADSVKGRFTISRDNAKNTVYLQMNSMKPEDTAVYYCNAVGSYRLYDYWGQGTQVTVSS | high polyreactivity |
| QVQLVESGGGLVQEGGSLRLSCAASGSIFYNAMGWTRQAPGKERELVAAISSRGASTYYADSVKGRFTISRDNAKNTVYLLMNSLKPEDTAVYYCAKDNRYPYPSGLDYWGQGTQVTVSS | high polyreactivity |
| QVQLVESGGGLVQEGGSLRLSCAASGSILYYYAMGWYRQAPGKERELVATITRRGGSTYYADSVKGRFTISRDNAKNTVYLQMNSLKPEDTAVYFCAARSRYGELYYWGQGTQVTVSS | high polyreactivity |
| QVQLVESGGGLVQEGGSLRLSCAASGSTFAANTMGWYRQAPGKERELVAAITVRGGSTYYADSVKGRFSMSRDNAKNTVYLQTNSLKPEDTAVYDCAAERPPYGYLVVGYVSTQYYYWGQGTQVTVSS | low polyreactivity |
| QVQLVESGGGLVQEGGSLRLSCAASGSTFTPYAMGWYRQAPGKERELVAGITGNGGSTRYADSVKGRFTISRDNEKNTVYLQMKSLKTEDSAVYYCAARWTRQRYRTSYYAWGQGTQVTVSS | high polyreactivity |
| QVQLVESGGGLVQEGGSLRLSCAASGSTFTYNDMGRYRQAPGKERELVAAITDSDGITYYADSVKGRFTISRDNAKNTVYLQMHSLKPEDTAVSYCAAYYYGSVAQDREYWGQGTQVTVSS | high polyreactivity |
| QVQLVESGGGLVQEGGSLRLSCAASGSTFYSNAMGWYRQARGKEREFLAAISWSGGSTYYADSVKGRFTISRDNAKNTVYFQMNSLKPEDTAVYYCAKKPYYYAFCGYGYWGQGSQVTVSS | high polyreactivity |
| QVQLVESGGGLVQEGGSLRLSCAASGYIFWSNTMGWYRQAPGKERELVAAISQSTASTYYADSVKGRFTISRDNAKNTVYLQMNSLKPDDTAVYYCAADGWSRSWGYWVHYGYWGQGTQVTVSS | low polyreactivity |
| QVQLVESGGGLVQEGGSLRLSCAASVRIFSDYAMGWYIQAPGKERELVATITSGDSTNYADSVKGRFTISRDNAKNTVYLQMNSLKPEDNAVYYFNADRFADYDYWGQGTQVTVSS | low polyreactivity |
| QVQLVESGGGLVQEGGSLRLSCAAYGFIFGDNALGWYRQAPGKERELVAGSTVSDGSTYYADSVKGRFTISRDNAKNTVYLLMNSLKPEDTAVYYCNAAGRYKPGAPYDYWGQGNQVTVSS | low polyreactivity |
| QVQLVESGGGLVQEGGSLRLSCACSARTITGYAIGWYRQAPGQEWEVVAAIYRRGASTYYADSVKGRFTISRDNAKNTVYLEMNSLKPEDTAVDYCAAYLYGLWSVGRDYWGQGTQVTVSS | high polyreactivity |
| QVQLVESGGGLVQEGGSLRLSCADSGRIFSTNAMGWSRQAPGKERELVAAISWSTGSTYYADSVKGRFTISRDNAKNTVYLQMNSLKPEDTAVYYCAASYTRTYWAYSYGYWGQGTQVTVSS | high polyreactivity |
| QVQLVESGGGLVQEGGSLRLSCADSGSTFHYYTMGWYRQAPGKERELVAAISWRGTSTYYADSVKGRFTISRDNAKNTVYLQMNSLKPEDTAVYYCAVRSSPGAGYYYWGQGTQVTVSS | high polyreactivity |

| Sequence | polyreactivity (PSR sort gate) |
| --- | --- |
| QVQLVESGGGLVQEGGSLRLSCDASAITIGRYAMGWYRQAPGKERELVAAISWSGGSTYFADSVKGRFTISRDNAKNTVYLHMNSLKPEDTAVYYCATRIRTVAYNYWGQGTQVTVSS | high polyreactivity |
| QVQLVESGGGLVQEGGSLRLTCAASGITFIYYAMGWYRQAPGKERELVAAISTGGSTYYADSVKGRCTISRDNAMNTVYLQMISLKPEDTAVYYWNALRKSLRGGDYWGQGTQVTVSS | high polyreactivity |
| QVQLVESGGGLVQEGGSLSLSCAASGLTFTGNAMAWYRQAPGKEREFVAAIRWSAGSTYYADSVKGRFTISRDNAKNTVYLQMNSLKPEDTAVYYCYAALNVSGHYPNDYCGQGTQVTVSS | low polyreactivity |
| QVQLVESGGGLVQEVGSLRISCAASGRIFYVYSMGWYRQAPGKERELVAAITSGGRTDYADSVKGRFTISRDNAKNTVYLQLNSLKPEDTAVYYCAAGGGWNGHRHRWLYGYGYWGQGTQVTVSS | high polyreactivity |
| QVQLVESGGGLVQGGGSLRLSCAASGLILRKYAMGWYRQAPGKEREFVAAITQTGSRTYYADSVKGRFTISRDNAKNTVYLQMNSLKPEDTAVYYCNAVNYRSSRDSGYWGQGTQVTVSS | high polyreactivity |
| QVQLVESGGGLVQGGGSLRLSCAASGRTFRYYAMGWYRQAPGKERELVAAITRSGGSTYYADSVKGRFTISRDNAKYTVYLQMNSLKPEDTAVYYCAASRFTSYGIDYDYWAQGTQVTVSS | high polyreactivity |
| QVQLVESGGGLVQGGGSLRLSCAASGSTFAVYDMGWYRPAPGKERELVAAITVSGSSTHYADSVKGRFTISRDNAKNTVYLQMNSLKPEDTAVYYWGQGTQVTVSS | low polyreactivity |
| QVQLVESGGGLVQGGGSLRLSCAASGSTFGRYAMGWYRQAPGKEREFVAGITGRGGSTYYADSVKGRFTISRDNAKNTVYLQMNSLKPQDTAVYYCAAGYRVGYLRAGDYWGQGTQVTVSS | high polyreactivity |
| QVQLVESGGGLVQGGGSLRLSCDDSGRNFNAYSRGWYRQATAKERELVAAISSRGGSTYYADSVKGRFTISRDNEMNSVYLKMNSLQPEDSAVYYFAAGIYTATGYGYWGQGTQVTVSS | high polyreactivity |
| QVQLVESGGGLVQGGSLRLSCAASGFTFPIYVMGGYRQAPGKERELVASISSVGSTNYADSVKGRFTISRDNAKNTVYLQMNSLKPEDTAVYYCNADAPNSYGGFDYWGQGTQVTVSS | low polyreactivity |
| QVQLVESGGGLVQPEGSLRLSSAASGRTFDYYALGWYRQAPGKERELVAAITWRGVSTYYADSVKGRFTISRDNAKNTVYLQMNSLKPEDTAVYYCAAYSYPYWQKRPYDYWGQGTQVTVSS | low polyreactivity |
| QVQLVESGGGLVQPGGSLRLRCAASGFIFWIYAMGWYRQAPGKERELVAAISLSSGSTYYADSVKGRFTISRDNAKNTVYLEMNSLKTEDTAVYYCAARGYSHVASRLYYYWGQGTQVTVSS | high polyreactivity |
| QVQLVESGGGLVQPGGSLRLSCAASGATLRSNAMGWSRQAPGKERELVAGISSGGGTYYADSVKGRFTISRDNAKNTVYLQMNSLNTEDTAVYYCAKVVYFGWSVQYYYWGQGTQVNVSS | low polyreactivity |
| QVQLVESGGGLVQPGGSLRLSCAASGFIFSYYAIGWYRQAPGKERELVAAISYRGGSTHYADSVKGRFTISRDNAKNTVYLQMNSLKPEDTAVYYCAADRVRRPSPVGMDYWGQGTQVTVSS | high polyreactivity |
| QVQLVESGGGLVQPGGSLRLSCAASGFIFSYYAMGWYRQAPGKERELVAAITQSGGGTYYADSVKGRFTISRDNAKNTVYLQMNSLKPEDTAVYYCAVLYYQTRQVYSGYSRYWLYSSRYDYWGQGTQVTVSS | high polyreactivity |
| QVQLVESGGGLVQPGGSLRLSCAASGGIFYGYAMGWYRQAPGKERELVAAISSTGGRTYYADSVKGRFTISRDNAKNTVYLQMNSLKPEDTAVYYCAAEDFTRQFEYWGQGTQVTVSS | low polyreactivity |
| QVQLVESGGGLVQPGGSLRLSCAASGIIFDVYAMGWYRQAPGKERELVAGISSGGSTYYADSVKGRFTISRDNAKNTVYFQMNSLKPEDTAVYYCNADGGYSYESTDHYGYDYWGQGTQVTVSS | low polyreactivity |
| QVQLVESGGGLVQPGGSLRLSCAASGITFRGYAMGWYRQAPGKERELVATISYRGGNTYYADSVKGRFTISRDNAKNTVYLQMNSLKPEDTAVYYCARKYFRTSNLYGYWGQGTQVTVSS | high polyreactivity |
| QVQLVESGGGLVQPGGSLRLSCAASGRIFIVNAMGWYRQAPGKERELVAAISRRGGSTYYADSVKGRFTISRDIAKNTVYLQMNSLKPEDTAVYYCNAVGGRYTGWRYDYWGQGTQVTVSS | high polyreactivity |
| QVQLVESGGGLVQPGGSLRLSCAASGRISSKYAMGWYRQAPGKERELVATISSRGGSTYYADSVKGRFTISRDNAKNTVYLQMNSLKPEDTAVYYCNRPTYLHSTSYSYDYWGQGTQVTVSS | low polyreactivity |
| QVQLVESGGGLVQPGGSLRLSCAASGSILKSYAMGWYRQAPGKERELVAAITYRDGSTYYAHSVKGRFTISRDNSKNTVYLQMNSLKPVDTAVYYCAAEPSWWNVFYPGYNYWGQGTQVTVSS | high polyreactivity |
